In IntAct's records for PubMed 17872410:

B1: Adagio protein 3 (Arabidopsis thaliana (Mouse-ear cress)), Q9C9W9 (parent)
chain: MAREHAIGEATGKRKKRGRVEEAEEYCNDGIEEQVEDEKLPLEVGMFYYPMTPPSFIVSDALEPDFPLIYVNRVFEVFTGYRADEVLGRNCRFLQYRDPRAQRRHPLVDPVVVSEIRRCLEEGIEFQGELLNFRKDGTPLVNRLRLAPIRDDDGTITHVIGIQVFSETTIDLDRVSYPVFKHKQQLDQTSECLFPSGSPRFKEHHEDFCGILQLSDEVLAHNILSRLTPRDVASIGSACRRLRQLTKNESVRKMVCQNAWGKEITGTLEIMTKKLRWGRLARELTTLEAVCWRKFTVGGIVQPSRCNFSACAVGNRLVLFGGEGVNMQPLDDTFVLNLDAECPEWQRVRVTSSPPGRWGHTLSCLNGSWLVVFGGCGRQGLLNDVFVLDLDAKHPTWKEVAGGTPPLPRSWHSSCTIEGSKLVVSGGCTDAGVLLSDTFLLDLTTDKPTWKEIPTSWAPPSRLGHSLSVFGRTKILMFGGLANSGHLKLRSGEAYTIDLEDEEPRWRELECSAFPGVVVPPPRLDHVAVSMPCGRVIIFGGSIAGLHSPSQLFLIDPAEEKPSWRILNVPGKPPKLAWGHSTCVVGGTRVLVLGGHTGEEWILNELHELCLASRQDSDL
partner: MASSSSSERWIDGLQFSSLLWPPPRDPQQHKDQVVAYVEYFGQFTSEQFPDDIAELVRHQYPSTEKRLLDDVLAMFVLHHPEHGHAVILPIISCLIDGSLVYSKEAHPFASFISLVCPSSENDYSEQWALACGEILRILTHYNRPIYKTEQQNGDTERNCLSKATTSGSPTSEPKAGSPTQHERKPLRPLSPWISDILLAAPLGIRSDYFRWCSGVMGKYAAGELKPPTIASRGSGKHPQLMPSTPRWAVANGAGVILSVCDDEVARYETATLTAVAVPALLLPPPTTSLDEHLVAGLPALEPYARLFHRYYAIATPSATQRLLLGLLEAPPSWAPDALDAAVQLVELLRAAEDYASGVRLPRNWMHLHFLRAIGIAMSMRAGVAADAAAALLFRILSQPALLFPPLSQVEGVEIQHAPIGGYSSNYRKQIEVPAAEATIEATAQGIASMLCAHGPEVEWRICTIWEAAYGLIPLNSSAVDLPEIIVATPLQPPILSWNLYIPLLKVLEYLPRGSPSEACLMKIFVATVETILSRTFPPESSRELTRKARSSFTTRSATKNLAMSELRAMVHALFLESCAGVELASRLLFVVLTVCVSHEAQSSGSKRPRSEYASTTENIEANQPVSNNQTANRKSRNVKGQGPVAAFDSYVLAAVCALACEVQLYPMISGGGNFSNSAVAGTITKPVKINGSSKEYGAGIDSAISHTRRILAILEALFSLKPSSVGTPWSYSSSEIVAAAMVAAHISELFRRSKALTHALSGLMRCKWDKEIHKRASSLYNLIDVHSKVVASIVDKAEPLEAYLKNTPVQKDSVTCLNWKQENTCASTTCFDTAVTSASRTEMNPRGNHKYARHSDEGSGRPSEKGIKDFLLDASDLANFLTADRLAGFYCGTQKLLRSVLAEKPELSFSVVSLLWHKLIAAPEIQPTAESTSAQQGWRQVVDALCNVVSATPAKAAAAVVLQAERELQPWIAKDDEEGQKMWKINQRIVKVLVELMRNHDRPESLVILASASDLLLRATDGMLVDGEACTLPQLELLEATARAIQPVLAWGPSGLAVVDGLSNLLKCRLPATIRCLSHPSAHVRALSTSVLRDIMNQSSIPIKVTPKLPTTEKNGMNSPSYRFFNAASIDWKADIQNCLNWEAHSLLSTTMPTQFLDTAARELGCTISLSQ

Variants of: B1
Conditions: with gigan_arath GI

Row | effect of a mutation on the interaction | Variant
1 | decreasing interaction | C91A
2 | disrupting interaction | Q163L
3 | decreasing interaction | R92D
